Source: paper PMC12464775, “Selective and Potent Peptide Binders of RNF43 for Wnt Signaling Inhibition” (ACS Central Science, 2025)

Molecular target: T1, extracellular domain (ECD) of the human RNF43 protein, biotinylated, Q68DV7
T1 chain: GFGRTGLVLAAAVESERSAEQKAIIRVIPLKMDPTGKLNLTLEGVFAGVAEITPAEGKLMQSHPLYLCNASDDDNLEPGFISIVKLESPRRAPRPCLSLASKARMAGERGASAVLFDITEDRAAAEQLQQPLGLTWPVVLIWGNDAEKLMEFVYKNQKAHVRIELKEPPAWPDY
Assay: SPR
Details: chain shown with the change;; parent: 1.1 ± 0.07 nM

Question: With EQCTSTQDLCHDASHVCCWPLDCRWAVKYQWFWDCIG [GUR-1.6.12.2 Y13A] as the binder, how does the Kd read?
Answer: Its Kd is 36 nM.
